Results reported in US20180057589A1.

Legend:
[1] = biological target: human Notch1 NRR protein (human) (UniProt P46531); assay: SPR
[2] = biological target: mouse Notch1 NRR protein (mouse) (UniProt Q01705); assay: SPR
[3] = biological target: Notch1 on stably transfected NIH-3T3 cells; assay: cell-based or functional assay
[4] = biological target: human Notch1 NRR protein (human) (UniProt P46531); assay: ELISA on captured Flag-tagged NRR protein
[5] = biological target: mouse Notch1 NRR protein (mouse) (UniProt Q01705); assay: ELISA on captured Flag-tagged NRR protein
[6] = biological target: N-myc-Notch1 on K1-CHO cells; assay: FACS dot plot α-Myc (PE) against α-NRR1 (FITC), K1-CHO myc-N1 cells, +Dox, panel 2 (other quadrants: upper left 17.1, lower left 26.2, lower right 0.077)
[7] = biological target: N-myc-Notch2 on K1-CHO cells; assay: FACS dot plot α-Myc (PE) against α-NRR1 (FITC), K1-CHO myc-N2 cells, +Dox, panel 3 (other quadrants: upper left 58.6, lower left 41.3, lower right 0.026)
[8] = biological target: hamster Notch2, endogenous on K1-CHO cells (hamster); assay: FACS dot plot α-Myc (PE) against α-NRR1 (FITC), untransfected K1-CHO cells, +Dox, panel 1 (other quadrants: upper left 0.15, upper right 0.034, lower left 99.7)
[9] = biological target: hamster Notch2, endogenous on K1-CHO cells (hamster); assay: FACS dot plot α-Myc (PE) against α-NRR1 (FITC), untransfected K1-CHO cells, -Dox, panel 4 (other quadrants: upper left 0.13, upper right 0.041, lower left 99.7)
[10] = biological target: N-myc-Notch1 on K1-CHO cells; assay: FACS dot plot α-Myc (PE) against α-NRR1 (FITC), K1-CHO myc-N1 cells, -Dox (transgene not induced), panel 5 (other quadrants: upper left 0.72, lower left 99, lower right 0.14)
[11] = biological target: N-myc-Notch2 on K1-CHO cells; assay: FACS dot plot α-Myc (PE) against α-NRR1 (FITC), K1-CHO myc-N2 cells, -Dox (leaky expression per the text), panel 6 (other quadrants: upper left 18, lower left 81.8, lower right 0.1)

Chain of mouse Notch1 NRR protein (mouse) (Q01705 1446-1723 limits assumed): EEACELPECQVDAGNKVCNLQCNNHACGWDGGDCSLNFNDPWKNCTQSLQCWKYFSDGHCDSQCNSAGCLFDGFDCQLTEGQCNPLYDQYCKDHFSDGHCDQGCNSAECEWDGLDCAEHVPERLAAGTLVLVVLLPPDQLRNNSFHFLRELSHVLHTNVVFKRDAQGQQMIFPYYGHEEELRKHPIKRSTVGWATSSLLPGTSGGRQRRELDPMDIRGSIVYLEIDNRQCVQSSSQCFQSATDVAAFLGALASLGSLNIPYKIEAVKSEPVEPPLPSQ
Chain of human Notch1 NRR protein (human) (P46531 1446-1733 limits assumed): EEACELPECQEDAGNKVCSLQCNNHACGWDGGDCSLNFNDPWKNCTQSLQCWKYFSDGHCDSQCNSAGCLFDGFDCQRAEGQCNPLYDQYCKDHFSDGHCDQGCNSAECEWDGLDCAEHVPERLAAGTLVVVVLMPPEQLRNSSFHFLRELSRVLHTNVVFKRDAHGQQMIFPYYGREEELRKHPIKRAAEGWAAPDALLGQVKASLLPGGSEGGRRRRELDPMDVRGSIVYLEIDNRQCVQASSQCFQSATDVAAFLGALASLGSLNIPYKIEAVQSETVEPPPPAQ

Kd [1]: 3 nM
Kd [2]: 3 nM
Notch reporter (luciferase) in Jag1 co-culture assay: antibody concentration for complete inhibition of Notch1 signaling [3]: 80 to 400 ng/mL
EC50 [4]: 0.1 µg/mL
EC50 [5]: 0.1 µg/mL
% of cells in the α-Myc-positive / α-NRR1-positive quadrant (upper right) [6]: 56.6%
% of cells in the α-Myc-positive / α-NRR1-positive quadrant (upper right) [7]: 0.064%
% of cells in the α-Myc-negative / α-NRR1-positive quadrant (lower right) [8]: 0.082%
% of cells in the α-Myc-negative / α-NRR1-positive quadrant (lower right) [9]: 0.12%
% of cells in the α-Myc-positive / α-NRR1-positive quadrant (upper right) [10]: 0.097%
% of cells in the α-Myc-positive / α-NRR1-positive quadrant (upper right) [11]: 0.13%
Substance: anti-NRR1 (antibody)
